Measurements: PMC11724288, “Structural and kinetic insights into tRNA promoter engagement by yeast general transcription factor TFIIIC”

Legend:
[1] = molecular target: T1, TFIIICΔtail (τ138, τ131, τ95Δtail, τ91, τ60, τ55) (Saccharomyces cerevisiae, UniProt P34111;P33339;P32367;Q06339;Q12308;Q12415 1-1160;1-1025;1-593;1-672;1-588;1-435); assay: EMSA; not significantly changed versus A/B; 100-900 nM protein; Buffer FB: 20 mM HEPES pH 7.5, 150 mM KCl, 2 mM MgCl2, 5 mM DTT; filter binding 1 h at 4 C; EMSA 20 min RT with 1 ug poly-dI/dC, gel at 4 C; footprint 30 min RT, DNase I 28 C; details: protein: recombinant; copies: 1;1;1;1;1;1; label: 32P
[2] = molecular target: T1, TFIIICΔtail (τ138, τ131, τ95Δtail, τ91, …); assay: filter binding; 150 mM KCl, 4 C, apparent Kd, Hill coefficient 1, N=1; Buffer FB: 20 mM HEPES pH 7.5, 150 mM KCl, 2 mM MgCl2, 5 mM DTT; filter binding 1 h at 4 C; EMSA 20 min RT with 1 ug poly-dI/dC, gel at 4 C; footprint 30 min RT, DNase I 28 C; details: protein: recombinant; copies: 1;1;1;1;1;1; blunt

B1: mA/B (EMSA) (dsDNA)
DNA 1: TCCATTGAAAAGTCGCCATCTAACTATTGTCGTTAGTACACATCGTTGTGGCCGATGAAACCCTGGTTCGATTCTAGGAGATGGCATTTT
DNA 2: AAAATGCCATCTCCTAGAATCGAACCAGGGTTTCATCGGCCACAACGATGTGTACTAACGACAATAGTTAGATGGCGACTTTTCAATGGA
[1]
  binding result: binds

B2: 85-bp tRNAHis (dsDNA)
DNA 1: TGAAAAGTCGCCATCTTAGTATAGTGGTTAGTACACATCGTTGTGGCCGATGAAACCCTGGTTCGATTCTAGGAGATGGCATTTT
DNA 2: AAAATGCCATCTCCTAGAATCGAACCAGGGTTTCATCGGCCACAACGATGTGTACTAACCACTATACTAAGATGGCGACTTTTCA
[2]
  Kd: 30 ± 1 nM
